Experimental data from the supplement of paper PMC7877785.
± gives the uncertainty stated by the source.

Test: self-splicing fitness, log relative to wild type (ln ratio); higher = more splicing; Tetrahymena group I intron in knt gene, E. coli kanamycin selection, DiMSum; sequences stand for … in CUCUCU…GGAGGGAAAAGUUAUCAGGCAUGCACCUGGUAGCUAGUCUUUAAACCAAUAGAUUGCAUCGGUUUAAAAGGCAAGACCGUCAAAUUGCGGGAAAGGGGUCAACAGCCGUUCAGUACCAAGUCUCAGGGGAAACUUUGAGAUGGCCUUGCAAAGGGUAUGGUAAUAAGCUGACGGACAUGGUCCUAACCACGCAGCCAAGUCCUAAGUCAACAGAUCUUCUGUUGAUAUGGAUGCAGUUCACAGACUAAAUGUCGGUCGGGGAAGAUGUAUUCUUCUCAUAAGAUAUAGUCGGACCUCUCCUUAAUGGGAGCUAGCGGAUGAAGUGAUGCAACACUGGAGCCGCUGGGAACUAAUUUGUAUGCGAAAGUAUAUUGAUUAGUUUUGGAGUACUCGUGGUCG
How it was run: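 Pooled colonies went to amplicon sequencing on an Illumina HiSeq 2500 after six replicate transformations. The plates were LB agar with 100 μg/mL carbenicillin, 50 μM IPTG and 0.2% rhamnose, with or without 25 μg/mL kanamycin, incubated overnight at 37°C or 30°C. The E. coli BL21(DE3) library had all eight P1ex-region intron nucleotides randomised, the intron placed in the knt kanamycin-resistance gene on pET-22b(+). DiMSum fitness is the error-weighted combination of replicate fold changes, kanamycin against none, normalised to wild type.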

Row | Sequence | self-splicing fitness (ln) (30 °C) | self-splicing fitness (ln) (37 °C)
1 | UGCAAGCAAUAUUACGAAUC | -3.56 ± 0.29 | 
2 | UGGGAGCAAUAUUACGAAAC | -1.85 ± 0.22 | -1.79 ± 0.49
3 | GGUAAGCAAUAUUACGAGAA | -2.48 ± 0.42 | -2.67 ± 0.37
4 | AACAAGCAAUAUUACGGCUG | -0.419 ± 0.059 | -0.225 ± 0.086
5 | UGGAAGCAAUAUUACGCAUG | -1.02 ± 0.096 | -0.486 ± 0.12
6 | UGGUAGCAAUAUUACGGCCU | -0.807 ± 0.18 | -0.532 ± 0.39
7 | AGCUAGCAAUAUUACGAUGC | -2.47 ± 0.12 | -2.12 ± 0.17
8 | AGCUAGCAAUAUUACGCUGA | -2.63 ± 0.18 | -0.955 ± 0.09
9 | UAGAAGCAAUAUUACGACGC | -1.84 ± 0.33 | -1.21 ± 0.24
10 | GUGGAGCAAUAUUACGUAAG | -3.04 ± 0.26 | -1.21 ± 0.47
11 | AUUGAGCAAUAUUACGCGCA | -1.48 ± 0.16 | -1.08 ± 0.2
12 | GAGCAGCAAUAUUACGGUCA | -0.942 ± 0.11 | -0.118 ± 0.11
13 | UCCUAGCAAUAUUACGGGCU | -2.12 ± 0.1 | -1.74 ± 0.13
14 | CCGUAGCAAUAUUACGAUUA | -2.57 ± 0.2 | -1.86 ± 0.26
15 | UGCCAGCAAUAUUACGGCCA | -0.44 ± 0.076 | -0.0136 ± 0.086
16 | GGUAAGCAAUAUUACGGCUC | -0.214 ± 0.14 | -0.443 ± 0.16
17 | UGACAGCAAUAUUACGUUGC | -3.03 ± 0.2 | -2.89 ± 0.23
18 | UCACAGCAAUAUUACGCUUU | -3.36 ± 0.15 | -3.6 ± 0.27
19 | CAUCAGCAAUAUUACGUACG | 0.0534 ± 0.077 | -0.0455 ± 0.097
20 | AAUCAGCAAUAUUACGCACC | -0.409 ± 0.17 | 0.0564 ± 0.22

Row | Sequence | self-splicing fitness (ln) (30 °C) | self-splicing fitness (ln) (37 °C)
21 | UACCAGCAAUAUUACGACGC | -2.41 ± 0.12 | -1.73 ± 0.15
22 | CCGAAGCAAUAUUACGGCGU | -3.6 ± 0.17 | -2.79 ± 0.17
23 | AUGAAGCAAUAUUACGCAGG | -0.47 ± 0.12 | -0.916 ± 0.14
24 | UGGAAGCAAUAUUACGGGUA | -1.67 ± 0.13 | -1.05 ± 0.13
25 | AUGAAGCAAUAUUACGCGAU | -2.89 ± 0.21 | -1.59 ± 0.23
26 | AUUGAGCAAUAUUACGUGAG | -2.08 ± 0.11 | -1.97 ± 0.14
27 | CCCGAGCAAUAUUACGCCUG | -4.16 ± 0.39 | 
28 | GUAGAGCAAUAUUACGAAAA |  | -0.266 ± 0.44
29 | ACGUAGCAAUAUUACGUAGU | -3.78 ± 0.23 | -1.26 ± 0.16
30 | CUUUAGCAAUAUUACGUCGU | -2.27 ± 0.36 | -3.05 ± 0.37
31 | UUUUAGCAAUAUUACGUUGA |  | -1.8 ± 0.36
32 | AGAUAGCAAUAUUACGUGGU | -3.03 ± 0.11 | -2.27 ± 0.15
33 | CCAUAGCAAUAUUACGAAGU | -3.61 ± 0.21 | -2.64 ± 0.22
34 | UAUCAGCAAUAUUACGCAAC | -2.71 ± 0.2 | -1.52 ± 0.17
35 | GGGUAGCAAUAUUACGGUCA | 0.229 ± 0.18 | -0.659 ± 0.18
36 | GCAGAGCAAUAUUACGGGUA | -3.16 ± 0.18 | -3.68 ± 0.33
37 | ACGAAGCAAUAUUACGGUUU | -3.17 ± 0.13 | -1.89 ± 0.12
38 | GGCCAGCAAUAUUACGUCUA | -2.43 ± 0.084 | -1.29 ± 0.078
39 | AGCGAGCAAUAUUACGGCAC | -1.57 ± 0.22 | -0.495 ± 0.3
